Marks after values point to notes of the source that are not given here.
Tests used:
β3-AR = β3-AR (Homo sapiens, UniProt P13945); experiment: [125I] ZAG binding to crude membranes of CHO-K1 β3 cells; parameters: host or cells: CHO-K1
Procedure: [^125I] labelling of ZAG. One iodo bead that had been washed and dried was incubated with Na [^125I] (1 mCi per 100 μg protein) for 5 min in PBS, then ZAG (100 μg protein) was added and left for a further 15 min. The reaction was terminated by removal of the iodo bead, while free Na [^125I] was removed using a Sephadex G25 column eluted with 0.1MNaI. The [^125I] ZAG was concentrated against PBS using a Microcon microconcentrator with a filter cut-off of Mr 10,000. The specific activity of the [^125I] ZAG was 8 Cimg protein^1.
For binding studies cells were sonicated in 2 mM Tris HCl, pH7.5, containing […] and crude total membranes were pelleted by centrifugation (13,000 g; 15 min) at 4° C. Binding studies were carried out at 37° C. by incubating membranes (500 μg protein) in 0.4 ml 50 mM Tris HCl, pH 7.5, containing 0.5 mM MgCl2 for 60 min with various concentrations of [^125I] ZAG (3,000 to 15,000 cpm) in the absence or presence of 100 μM non-labelled ZAG. The membranes were then precipitated by centrifugation at 13000 g for 20 min, the supernatant was removed and the [^125I] bound to the pellet was quantitated using a Packard Corbra Model 5005 Auto-gamma counter. Binding was analysed using non-linear regression analysis (GraphPad Prism, Version 5.04). Specific binding was regarded as the amount of labelled ZAG displaced by non-radioactive ZAG.

male Wistar rats = experiment: mature male Wistar rats, daily i.v. ZAG for 10 days: body weight, body composition, plasma metabolites; format: in vivo, rat
Procedure: Animal—Rats. Mature male Wistar rats (one year old from our own colony) weighing 540±82.5 g were housed individually and treated once daily i.v., with either ZAG in PBS (100 μl) (50 μg per 100 g body weight), or with PBS (100 μl) as a control. Both food and water intake and body weight were measured daily. Animals were given free access to food (Special Diet Services, Essex, UK) and water ad libitum. The animal experiment was carried out under the welfare conditions imposed by the British Home Office. After 10 days treatment the animals were terminated and the body composition determined. Animals were heated to 80-90° C. for 7 days until constant weight was achieved. The water content was then determined from the difference between the wet and dry weight. Lipids were extracted from the dry carcass using a sequence of chloroform:methanol (1:1), ethanol/acetone (1:1) and diethyl ether (120 ml of each) as described by Lundholm et al (14). The solvents were evaporated and the fat weighed. The non-fat carcass mass was calculated as the difference between the initial weight of the carcass and the weight of water and fat.
Serum Metabolite Determinations. Non-esterified fatty acids (NEFA) were determined using a Wako-ASC-ACOD kit (Wako Chemical GmbH, Neuss, Germany). Triglycerides were determined using a Triglyceride kit (Sigma Chemical Co., Poole, United Kingdom) and 3-hydroxybutyrate by a quantitative enzymatic determination kit (Sigma). Glucose was measured using a glucose analyser (Beckman, Irvine, Calif.) and glycerol was determined enzymatically using the method of Wieland as described in “Methods of Enzymatic Analysis” (Ed. Bergmeyer, H. U.) Vol. 3, pp1404-1409, published by Academic Press, London (1974).

[1] = system: skeletal muscle of ob/ob mice; experiment: Protein synthesis and degradation in skeletal muscle of ZAG-treated ob/ob mice; format: in vivo, mouse; conditions: ob/ob mice treated 5 days
Procedure: Protein Synthesis and Degradation in Muscle. The method for the determination of protein synthesis and degradation in muscle has been previously described (Smith, K. L. & Tisdale, M. J. Increased protein degradation and decreased protein synthesis in skeletal muscle during cancer cachexia. Br. J. Cancer 67, 680-685 (1993)). […] Protein synthesis was measured by the incorporation of L-[2,6-^3H] phenylalanine (640 MBq) into acid-insoluble material using a 2 h period in which the muscles were incubated at 37° C. in RPMI/640 without phenol red and saturated with O2:CO2 (19:1). Muscles were then rinsed in non-radioactive medium, blotted and homogenised in 2% perchloric acid. The rate of protein synthesis was calculated by dividing the amount of protein-bound radioactivity by the amount of acid soluble radioactivity. Protein degradation was determined by the release of tyrosine from gastrocnemius muscle over a 2 h period in 3 ml of oxygenated Krebs-Henseleit buffer, pH7.4, containing 5 mM glucose and 0.5 mM cycloheximide.

ob/ob mice = experiment: Body weight loss by route of administration of ZAG in ob/ob mice; format: in vivo, mouse; conditions: intraveneous, 50 ug/day

Chain of β3-AR (P13945 whole entry): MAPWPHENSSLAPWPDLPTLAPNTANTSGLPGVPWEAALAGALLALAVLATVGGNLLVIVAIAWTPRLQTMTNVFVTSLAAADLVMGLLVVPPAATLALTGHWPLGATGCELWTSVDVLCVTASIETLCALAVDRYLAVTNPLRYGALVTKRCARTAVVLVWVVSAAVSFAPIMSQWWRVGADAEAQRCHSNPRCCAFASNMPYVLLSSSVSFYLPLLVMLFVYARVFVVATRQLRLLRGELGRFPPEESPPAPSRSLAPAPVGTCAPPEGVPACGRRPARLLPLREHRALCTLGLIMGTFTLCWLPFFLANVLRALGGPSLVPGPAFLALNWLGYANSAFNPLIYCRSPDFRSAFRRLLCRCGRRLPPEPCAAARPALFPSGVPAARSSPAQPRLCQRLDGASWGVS

B1: ZAG: recombinant full length human zinc-α2-glycoprotein (SEQ ID NO: 1) secreted by transfected HEK293F cells; lipid mobilizing factor (protein, listed as Homo sapiens)
chain: QENQDGRYSLTYIYTGLSKHVEDVPAFQALGSLNDLQFFRYNSKDRKSQPMGLWRQVEGMEDWKEDSQLQKAREDMETLKDIVEYYNDSNGSHVLQGRFGCEIENNRSSGAFWKYYYDGKDYIEFNKEIPAWVPFDPAAQITKQKWEAEPVYVQRAKAYLEEECPATLRKYLKYSKNILDRQDPPSVVVTSHQAPGEKKKLKCLAYDFYPGKIDVHWTRAGQVQEPELRGDVLHNGNGTYQSWVVVAVPPQDTAPYSCHVQHSSLAQPLVVPWEAS
For B1, the “Bmax at β3-AR relative to β2-AR” value (β3-AR) was “about three times”, the “Kd at β3-AR, fold lower than that of CGP12177” value (β3-AR) was “about 100 fold” and the “effect of freeze-thawing on binding to β3-AR” value (β3-AR; single freeze/thaw cycle) was “eliminated binding”. For the same molecule, the “time to significant elevation in body temperature” value (male Wistar rats; after the first administration) was at most 24 h, the Final weight (male Wistar rats; male rats, after 10 days) was 525 ± 1 g and the Weight change (male Wistar rats; male rats, after 10 days) was -5 ± 1 g. The “elevation in body temperature” value (male Wistar rats; rats) was 0.4 °C, the “Glucose (plasma)” value (male Wistar rats; rats treated for 10 days) was 16.2 ± 2.1^c mmol/l and the “Glycerol (plasma)” value (male Wistar rats; rats treated for 10 days) was 450 ± 51^c umol/l. For the same molecule, the “NEFA (plasma)” value (male Wistar rats; rats treated for 10 days) was 0.26 ± 0.06^b mEq/l, the “Trigylcerides (plasma)” value (male Wistar rats; rats treated for 10 days) was 1.1 ± 0.09^a mmol/l and the “decrease in plasma levels of NEFA” value (male Wistar rats; rats, 10 days) was 55%. For the same molecule, the “increase in plasma glycerol concentration” value (male Wistar rats; rats, 10 days) was 50%, the “reduction of plasma levels of glucose and triglycerides” value (male Wistar rats; rats, 10 days) was 36-37% and the “decrease in body weight” value (male Wistar rats; rats, after 10 days, 50 μg/100 g b.w. i.v. daily) was 5 g. The “decrease in protein degradation” value [1] was 60%, the “protein synthesis in soleus muscle” value [1] was “over a two-fold increase” and the “% of i.v. loss over the same time” value (ob/ob mice; 8 Days) was 100%. For the same molecule, the “% of i.v. loss over the same time” value (ob/ob mice; 20 Days) was 100% and the Body weight loss (ob/ob mice; 70 g ob/ob mice, 8 Days) was −6.0%.

From patent US10077295B2, “Glycoproteins having lipid mobilizing properties and therapeutic uses thereof” (Aston University, priority 2010, dated 2018)
